# US20080318857A1 (MEDICAL COLLEGE OF GEORGIA RESEARCH INSTITUTE, published 2008)
# B1: Flt23K intraceptor (Flt23-KDEL; domains 2 and 3 of VEGFR-1 (Flt) fused at the C-terminus to the ER retention signal KDEL) (receptor)
# chain: DTGRPFVEMYSEIPEIIHMTEGRELVIPCRVTSPNITVTLKKFPLDTLIPDGKRIIWDSRKGFIISNATYKEIGLLTCEATVNGHLYKTNYLTHRQTNTIIDVQISTPRPVKLLRGHTLVLNCTATTPLNTRVQMTWSYPDEKNKRASVRRRIDQSNSHANIFYSVLTIDKMQNKDKGLYTCRVRSGPSFKSVNTSVHIYDKAFITVKHRKKDEL
# notes: Expressed inside transfected cells from pCMV.Flt23K, not purified; also called pCMV.Flt23K (expression plasmid); pCMV.Flt23
# Target: T1, VEGFR-2 (KDR), endogenous in A375 human malignant melanoma cells (human, UniProt P35968 20-1356, limits assumed)
# T1 construct: Endogenous protein in cell lysate; also called Flk
# T1 sequence (P35968 20-1356 limits assumed): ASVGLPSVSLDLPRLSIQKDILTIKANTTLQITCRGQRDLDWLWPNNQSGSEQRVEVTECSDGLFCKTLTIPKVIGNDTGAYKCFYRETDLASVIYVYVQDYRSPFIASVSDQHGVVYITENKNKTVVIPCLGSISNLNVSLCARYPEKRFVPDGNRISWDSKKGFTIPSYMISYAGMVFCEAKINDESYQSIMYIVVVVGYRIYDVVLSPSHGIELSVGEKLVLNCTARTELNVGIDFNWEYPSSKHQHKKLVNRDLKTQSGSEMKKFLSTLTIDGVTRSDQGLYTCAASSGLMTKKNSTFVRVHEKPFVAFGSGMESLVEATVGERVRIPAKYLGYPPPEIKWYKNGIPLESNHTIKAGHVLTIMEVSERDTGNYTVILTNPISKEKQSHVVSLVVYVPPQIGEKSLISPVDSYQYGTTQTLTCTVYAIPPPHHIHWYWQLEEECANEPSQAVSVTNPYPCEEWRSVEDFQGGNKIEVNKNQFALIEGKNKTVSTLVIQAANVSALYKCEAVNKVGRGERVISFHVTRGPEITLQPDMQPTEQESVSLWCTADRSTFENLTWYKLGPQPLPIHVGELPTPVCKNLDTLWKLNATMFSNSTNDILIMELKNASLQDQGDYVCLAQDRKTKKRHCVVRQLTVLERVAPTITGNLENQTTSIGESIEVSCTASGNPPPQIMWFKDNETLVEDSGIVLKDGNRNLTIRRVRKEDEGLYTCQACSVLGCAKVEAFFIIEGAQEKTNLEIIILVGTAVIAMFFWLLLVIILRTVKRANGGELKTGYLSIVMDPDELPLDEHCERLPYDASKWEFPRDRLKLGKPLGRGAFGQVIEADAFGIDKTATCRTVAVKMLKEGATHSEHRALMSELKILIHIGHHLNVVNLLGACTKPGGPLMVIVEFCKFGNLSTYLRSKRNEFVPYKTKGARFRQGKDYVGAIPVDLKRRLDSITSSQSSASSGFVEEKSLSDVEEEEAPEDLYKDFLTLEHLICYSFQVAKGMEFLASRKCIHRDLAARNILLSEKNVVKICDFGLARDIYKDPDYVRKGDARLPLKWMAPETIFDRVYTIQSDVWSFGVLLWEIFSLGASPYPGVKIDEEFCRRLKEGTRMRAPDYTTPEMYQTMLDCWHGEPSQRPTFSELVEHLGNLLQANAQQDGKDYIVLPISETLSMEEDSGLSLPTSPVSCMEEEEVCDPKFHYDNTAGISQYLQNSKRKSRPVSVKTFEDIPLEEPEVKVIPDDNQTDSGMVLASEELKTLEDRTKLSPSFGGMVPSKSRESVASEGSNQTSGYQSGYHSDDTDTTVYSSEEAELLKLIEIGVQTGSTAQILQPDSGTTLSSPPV
# Assay: co-immunoprecipitation: anti-FLT IP of transfected hypoxic A375 cell fraction, Western blot with anti-VEGFR-2
# Method: HMMCs transfected with pCMV.Flt23K or pCMV.Flt24K were subjected to hypoxia 48 hours after transfection. Two days later, the cellular fraction was immunoprecipitated with anti-FLT antibody (epitope specific for domains 2 and 3; Santa Cruz, Calif.) and subsequently underwent Western blotting with an anti-VEGF or an anti-VEGFR-2 antibody. A 50 kDa band (consistent with a VEGF homodimer interacting with the intraceptor) was detected in cells transfected with pCMV.Flt23K or pCMV.Flt24K (FIG. 5A). A 30 kDa band was present in cells transfected with pCMV.Flt24K but not pCMV.Flt23K (FIG. 5B).
binder,measurement,value
B1,binding result,no binding
